Data set [1] can be described thus: folding stability dG unfold from chymotrypsin proteolysis; higher = more stable. The procedure:
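Folding stability of de novo designed mini-proteins (<80 aa, no Cys; designed by TrROS, TrMRF, ProteinMPNN and the joint model) was measured by cDNA display proteolysis with trypsin and chymotrypsin. Each protease was used at 11 concentrations in a threefold dilution series plus a no-protease condition. K50 was inferred by Bayesian fitting of sequencing counts, and dG unfold was derived against a sequence-predicted unfolded-state K50 (Tsuboyama et al. method). Sequences shown include variable-length N-terminal GS-type padding (SAGGSAGG...) inside a display construct carrying a PA tag. Rows were kept only if the AF2 dimer inter-PAE was >15, to exclude likely homo-oligomers.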

Data set [2] in a line: folding stability dG unfold (combined trypsin and chymotrypsin); higher = more stable. The gist of the method: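 K50 was inferred by Bayesian fitting of sequencing counts obtained after protease digestion of designed mini-proteins. Unfolding free energy was derived by comparison with a sequence-predicted unfolded-state K50 and a shared folded-state K50, for each protease or both combined. The mini-proteins were under 80 residues, had no cysteine, were carried in a PA-tagged cDNA display construct, and were kept only if AlphaFold2 dimer inter-PAE exceeded 15.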

± gives the half width of the 95% confidence interval.

Consider “SAGGSAGGSAGGQPLLARPNDEPIVEVEISETTTLLPNGTVVTTYSVPKKGILTTVTLVSAGGSAGGSAGGS [r10_160_JUSTAS]”, for which the “folding stability dG unfold” value in data set [1] was -0.703 ± 0.29 kcal/mol; in data set [2], less than -1 kcal/mol.
In the case of “SAGGSAGGSAGGRIRLRTELLVRREDGSLSRFRETAVFEVEARPRPVPAPRAYRDANGRLVSAGGSAGGSAG [r3_252_TrMRF]”, the “folding stability dG unfold” value in data set [1] was 0.264 ± 0.075 kcal/mol; in data set [2] it was -0.558 ± 0.13 kcal/mol.
For the sequence “SAGGSAGGSAGGSDPSATLRVTLTPRTTRTRLVTDEDGVERTYTFGGDGTLSVSLLPSGSAGGSAGGSAGGS [r4_162_TrMRF]”, the “folding stability dG unfold” value is 0.647 ± 0.15 kcal/mol in data set [1] and 0.258 ± 0.091 kcal/mol in data set [2].
As to “SAGGSAGGSAGGSKKKKKKPKKVLLVRNKKTKKLYVFKTKEEAKKAGFEIVKDGKIKKKSAGGSAGGSAGGS [r4_306_TrROS_Hall]”, the entries for the “folding stability dG unfold” value in data set [1] and in data set [2] were 0.258 ± 0.55 kcal/mol and 0.0938 ± 0.41 kcal/mol, respectively.
Taken in the same sequence, the figures for “SAGGSAGGSAGGSKPDPEIEQERNPEKGYRTIKIEFPDKPRTIMVKNLPPDDPALRDAFSAGGSAGGSAGGS [r4_328_TrROS]” were -0.0426 ± 0.23 kcal/mol and -0.349 ± 0.18 kcal/mol.
With “SAGGSAGGSAGGSKTKTISFPMPWDDIPELAEELKDKGPVTIEHQDPDGNPREFTIPPDSAGGSAGGSAGGS [r4_341_TrROS]”, the “folding stability dG unfold” value in data set [1] turned out to be 0.484 ± 0.13 kcal/mol; in data set [2] it was 0.0258 ± 0.19 kcal/mol.
For “SAGGSAGGSAGGSKVNDVTAEKNFLVFTEDGRVLGKGEVERAFAAGAGPIGAVPLPPGASAGGSAGGSAGGS [r4_47_TrMRF]”, the “folding stability dG unfold” value in data set [1] is -0.54 ± 0.23 kcal/mol; in data set [2], less than -1 kcal/mol.
Taken in the same sequence, the figures for “SAGGSAGGSAGGSKVPPGAKITVERHDGGYRTVEIRPPNGKPVEIMMPEDDADEIADQISAGGSAGGSAGGS [r4_16_TrROS]” were -1.26 ± 0.82 kcal/mol and less than -1 kcal/mol.
Consider “SAGGSAGGSAGGSMTVTETRYVGTDPATGVATTLSTYRDASGTPGLVTTYPGGAVTVALSAGGSAGGSAGGS [r4_35_JUSTAS]”, for which the results for the “folding stability dG unfold” value in data set [1] and in data set [2] were 0.0995 ± 0.26 kcal/mol and -0.312 ± 0.28 kcal/mol, respectively.
Turning to “SAGGSAGGSAGGSMVPVPVNILKLAPGGIPLGTYPVEPLRKEGISPEEFAKKNGYIISGSAGGSAGGSAGGS [r10_153_JUSTAS]”, the “folding stability dG unfold” value in data set [1] is -0.0261 ± 0.3 kcal/mol; in data set [2], -0.827 ± 0.26 kcal/mol.
“SAGGSAGGSAGGSNPNKPKEFYRIEYTHGGKPHTHMFPPNEPIPPGPNMKVDPFPADDLSAGGSAGGSAGGS [r4_107_TrROS]”: the entries for the “folding stability dG unfold” value in data set [1] and in data set [2] were -0.131 ± 0.23 kcal/mol and -0.688 ± 0.69 kcal/mol, respectively.
“SAGGSAGGSAGGSPFWRIKIENPGNGKEITVMVPPDDIDKAKEEAEQEGLKKIEIEPVPSAGGSAGGSAGGS [r4_102_TrROS]”: the “folding stability dG unfold” value in data set [1] was -0.0872 ± 0.3 kcal/mol; in data set [2] it was -0.993 ± 0.7 kcal/mol.
On to “SAGGSAGGSAGGSPLTLTRTLTLTRTTTDPDVPGTTTTETRTLTLTTELTLPPLPPGTPSAGGSAGGSAGGS [r4_231_TrROS_Hall]”, for which the “folding stability dG unfold” value in data set [1] is 0.588 ± 0.18 kcal/mol; in data set [2], less than -1 kcal/mol.
Taken in the same sequence, the figures for “SAGGSAGGSAGGSPRHYYVEIEFPNGRKMSIPIESPEEALDYLEDHNYPIKDVELHPLKSAGGSAGGSAGGS [r4_213_TrROS]” were 0.0167 ± 0.25 kcal/mol and -0.323 ± 0.41 kcal/mol.
“SAGGSAGGSAGGSPVIFVDPVEGRARVLLAAPAPNPDGEPGGLGLAEVEFEVGDVRLLLSAGGSAGGSAGGS [r4_10_TrMRF]”: the “folding stability dG unfold” value in data set [1] is 0.753 ± 0.075 kcal/mol; in data set [2], -0.00848 ± 0.12 kcal/mol.
Turning to “SAGGSAGGSAGGSSMLTTRPLPGGRTLLRTTLPDGTILVTRYDAAGEPVLETLPPSTPLLSAGGSAGGSAGG [r7_215_JUSTAS]”, the “folding stability dG unfold” value in data set [1] was 0.102 ± 0.27 kcal/mol; in data set [2] it was less than -1 kcal/mol.
In the case of “SAGGSAGGSAGGSSTITLDPANPTVVTDPATGVPTTGVSLAELEKLGMKPAGPDAYVVLSAGGSAGGSAGGS [r4_306_JUSTAS]”, the figures for the “folding stability dG unfold” value in data set [1] and in data set [2] were 0.289 ± 0.18 kcal/mol and less than -1 kcal/mol, respectively.
Consider “SAGGSAGGSAGGSSVYTSPSKPIAITSRTLVPESNLVRVEAVDPSGAPIEGIIPPSATLGSAGGSAGGSAGG [r7_427_JUSTAS]”, for which the “folding stability dG unfold” value in data set [1] was -0.114 ± 0.27 kcal/mol; in data set [2], less than -1 kcal/mol.

The values above are taken from the supplement of paper PMC12764529.
